Reference: IntAct's records for PubMed 34400613

B1: Ras GTPase-activating protein-binding protein 2 (Homo sapiens), Q9UN86 (parent)
chain: MVMEKPSPLLVGREFVRQYYTLLNKAPEYLHRFYGRNSSYVHGGVDASGKPQEAVYGQNDIHHKVLSLNFSECHTKIRHVDAHATLSDGVVVQVMGLLSNSGQPERKFMQTFVLAPEGSVPNKFYVHNDMFRYEDEVFGDSEPELDEESEDEVEEEQEERQPSPEPVQENANSGYYEAHPVTNGIEEPLEESSHEPEPEPESETKTEELKPQVEEKNLEELEEKSTTPPPAEPVSLPQEPPKAFSWASVTSKNLPPSGTVSSSGIPPHVKAPVSQPRVEAKPEVQSQPPRVREQRPRERPGFPPRGPRPGRGDMEQNDSDNRRIIRYPDSHQLFVGNLPHDIDENELKEFFMSFGNVVELRINTKGVGGKLPNFGFVVFDDSEPVQRILIAKPIMFRGEVRLNVEEKKTRAARERETRGGGDDRRDIRRNDRGPGGPRGIVGGGMMRDRDGRGPPPRGGMAQKLGSGRGTGQMEGRFTGQRR

Variants of: B1
Details: with ncap_sars2 N
For F15A;F33A;F124A, the “effect of a mutation on the interaction” value was “disrupting interaction strength”.
In the case of F15A;F33A, the “effect of a mutation on the interaction” value is reported as “decreasing interaction strength”.
With F15A the “effect of a mutation on the interaction” value was “decreasing interaction strength”.
